{
  "source": "patent US20070110760A1",
  "biological_target": "Syk kinase (endogenous, in cell lysates) (not stated (endogenous in murine NMuMG cells and in Bal-17 B cells)) (UniProt P48025)",
  "sequence (P48025 whole entry)": "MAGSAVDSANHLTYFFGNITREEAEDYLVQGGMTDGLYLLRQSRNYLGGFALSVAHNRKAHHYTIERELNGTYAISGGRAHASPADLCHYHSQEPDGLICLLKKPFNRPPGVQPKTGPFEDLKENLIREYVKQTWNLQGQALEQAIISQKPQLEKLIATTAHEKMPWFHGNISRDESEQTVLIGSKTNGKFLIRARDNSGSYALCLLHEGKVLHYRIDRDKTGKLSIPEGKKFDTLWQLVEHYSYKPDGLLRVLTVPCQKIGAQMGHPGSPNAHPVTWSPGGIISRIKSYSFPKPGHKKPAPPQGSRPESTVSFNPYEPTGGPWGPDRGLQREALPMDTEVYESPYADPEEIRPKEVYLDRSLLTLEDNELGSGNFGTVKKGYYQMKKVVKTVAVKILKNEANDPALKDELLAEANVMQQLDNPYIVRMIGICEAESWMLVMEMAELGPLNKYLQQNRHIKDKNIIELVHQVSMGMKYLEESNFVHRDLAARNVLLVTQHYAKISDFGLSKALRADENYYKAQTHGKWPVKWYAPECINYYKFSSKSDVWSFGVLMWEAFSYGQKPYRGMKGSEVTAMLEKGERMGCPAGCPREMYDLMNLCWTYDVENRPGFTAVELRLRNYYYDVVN",
  "test": "co-immunoprecipitation in the presence of tyrosine phosphatase inhibitors, NMuMG lysates, three independent experiments",
  "data": [
    {"substance": "MMTV Env surface unit (SU or gp52), unmutated envelope (from UniProt P03374 99-454)", "values": [
      {"measurement": "percent of SU co-immunoprecipitated with Syk", "result": "< 34", "unit": "%"}
    ]}
  ]
}
